Test results from patent US6794168B1, “Process for oxidising aromatic compounds” (Isis Innovation Limited, priority 1999, dated 2004).
Positions count from the first letter of the chain named. Numbers in names are those of the source.

B1: F87A-Y96F: P450cam mutant (with C334A) (protein, UniProt P00183 2-415, looked up, variant F87A Y96F C334A)
Camphor 5-monooxygenase: TTETIQSNANLAPLPPHVPEHLVFDFDMYNPSNLSAGVQEAWAVLQESNVPDLVWTRCNGGHWIATRGQLIREAYEDYRHFSSECPAIPREAGEAFDFIPTSMDPPEQRQFRALANQVVGMPVVDKLENRIQELACSLIESLRPQGQCNFTEDYAEPFPIRIFMLLAGLPEEDIPHLKYLTDQMTRPDGSMTFAEAKEALYDYLIPIIEQRRQKPGTDAISIVANGQVNGRPITSDEAKRMCGLLLVGGLDTVVNFLSFSMEFLAKSPEHRQELIERPERIPAACEELLRRFSLVADGRILTSDYEFHGVQLKKGDQILLPQMLSGLDERENAAPMHVDFSRQKVSHTTFGHGSHLCLGQHLARREIIVTLKEWLTRIPDFSIAPGAQIQHKSGIVSGVQALPLVWDPATTKAV
B2: F87A-Y96F-V247A: P450cam mutant (with C334A) (protein, UniProt P00183 2-415, looked up, variant F87A Y96F V247A C334A)
Camphor 5-monooxygenase: B1 Camphor 5-monooxygenase with V247A
B3: F87L-Y96F: P450cam mutant (with C334A) (protein, UniProt P00183 2-415, looked up, variant F87L Y96F C334A)
Camphor 5-monooxygenase: B1 Camphor 5-monooxygenase with A87L
B4: Y96A: P450cam mutant (with C334A) (protein, UniProt P00183 2-415, looked up, variant Y96A C334A)
Camphor 5-monooxygenase: B1 Camphor 5-monooxygenase with A87F, F96A
B5: Y96H: P450cam mutant (with C334A) (protein, UniProt P00183 2-415, looked up, variant Y96H C334A)
Camphor 5-monooxygenase: B1 Camphor 5-monooxygenase with A87F, F96H
B6: Y96F: P450cam mutant (with C334A) (protein, UniProt P00183 2-415, looked up, variant Y96F C334A)
Camphor 5-monooxygenase: B1 Camphor 5-monooxygenase with A87F
B7: Y96A-V247L: P450cam mutant (with C334A) (protein, UniProt P00183 2-415, looked up, variant Y96A V247L C334A)
Camphor 5-monooxygenase: B1 Camphor 5-monooxygenase with A87F, F96A, V247L
B8: Y96L-V247A: P450cam mutant (with C334A) (protein, UniProt P00183 2-415, looked up, variant Y96L V247A C334A)
Camphor 5-monooxygenase: B1 Camphor 5-monooxygenase with A87F, F96L, V247A
B9: C334A: P450cam with only the base mutation C334A (protein, UniProt P00183 2-415, looked up, variant C334A)
Camphor 5-monooxygenase: B1 Camphor 5-monooxygenase with A87F, F96Y

System: not listed separately
Assay: Oxidation of halo aromatic compounds by P450cam mutants in vitro, trichlorophenol products
Format: biochemical
Settings: (nmol product)(nmol P450cam)^−1(min)^−1; trichlorophenol products
Experimental: (§1) 50 mM Tris-HCl buffer pH 7.4 is added to make up the volume.
(§2) Temperature controlled at 30° C., optional.
(§3) The NADH turnover rate could be determined by monitoring the absorbance at 340 nm with time.
(§4) All mutants have C334A. Coupling efficiency is the percentage of NADH consumed which was utilised for product formation, i.e. a percentage of the theoretical maximum efficiency. The product formation rates are given in (nmol product) (nmol P450cam)^−1(min)^−1. The relative amount of product formed in each case is shown. 1,3- and 1,4-dichlorobenzene, 1,2,3- and 1,3,5-trichlorobenzene, 1,2,4,5- and 1,2,3,5-tetrachlorobenzene, and […] and 2,2′,4,5,5′-pentachlorobiphenyl were also found to be oxidised.

Molecule | Product formation rate [min⁻¹]
B1 | 3
B2 | 7
B3 | 8
B4 | 33
B5 | 1
B6 | 22

Same assay, conditions: percentage of NADH consumed utilised for product formation; trichlorophenol products

Molecule | Coupling Efficiency (%)
B4 | 14
B5 | 3

Same assay, conditions: substrate not named; all mutants have C334A

Molecule | 2,3,6-Trichlorophenol (relative amount of product formed) | 3,4,6-Trichlorophenol (relative amount of product formed)
B4 | 77 | 23
B5 | 54 | 46

System: P450cam
Assay: Oxidation of further halo aromatic substrates by P450cam enzymes
Format: biochemical, Pseudomonas putida
Settings: substrate of P450cam enzymes
Experimental: as §1, §2, §3, §4

Molecule | found to be oxidised
Clc1cc(Cl)c(Cl)c(Cl)c1 [1,2,3,5-tetrachlorobenzene] | oxidised
Clc1cccc(Cl)c1Cl [1,2,3-trichlorobenzene] | oxidised
Clc1cc(Cl)c(Cl)cc1Cl [1,2,4,5-tetrachlorobenzene] | oxidised
Clc1cc(Cl)cc(Cl)c1 [1,3,5-trichlorobenzene] | oxidised
Clc1cccc(Cl)c1 [1,3-dichlorobenzene] | oxidised
Clc1ccc(Cl)cc1 [1,4-dichlorobenzene] | oxidised
Clc1ccc(Cl)c(-c2cc(Cl)c(Cl)cc2Cl)c1 [2,2′,4,5,5′-pentachlorobiphenyl] | oxidised
Clc1c(Cl)c(Cl)c(-c2ccccc2)c(Cl)c1Cl [2,3,4,5,6-pentachlorobiphenyl] | oxidised

System: not listed separately
Assay: Oxidation of halo aromatic compounds by P450cam mutants in vitro, dichlorophenol products
Format: biochemical
Settings: (nmol product)(nmol P450cam)^−1(min)^−1; dichlorophenol products
Experimental: as §1, §2, §3, §4

Molecule | Product formation rate [min⁻¹]
B7 | 20
B8 | 0.7
B3 | 5
B4 | 19
B6 | 8
B9 | 0.5

Same assay, conditions: percentage of NADH consumed utilised for product formation; dichlorophenol products

Molecule | Coupling Efficiency (%)
B8 | 2
B4 | 6
B9 | 2

Same assay, conditions: substrate not named; all mutants have C334A

Molecule | 2,3-Dichlorophenol (relative amount of product formed) | 3,4-Dichlorophenol (relative amount of product formed)
B8 | 90 | 10
B4 | 94 | 6
B9 | 95 | 5
